In the supplement of paper PMC10126150:
± gives the standard deviation of the averaged measurements.

Test system: ATP
Experiment: switch fluorescence ratio, 500 uM ATP over buffer (Cy3 cluster intensity, sum of 5 cycles each) (fold (ratio)); higher = stronger signal-on switching upon ATP binding; sequences stand for … in TCGTCGGCAGCGTCAGATGTGTATAAGAGACAGTTTTTTTTTTTTTTTTTTTTTTTTT…TC
Conditions: aptamer strand: ATP DNA aptamer (quencher-CACCTGGGGGAGTATTGCGGAGGAAGG + anchor), 100 nM annealed; ATP concentration: 500 uM
Method in brief: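 Per cluster, summed Cy3 intensity from the target cycles was divided by that from the buffer cycles to give the fluorescence ratio, then averaged per switch-domain sequence. Clusters outside 100-1000 RFU were excluded. The Cy3-labelled switching-strand clusters, on a modified Illumina MiSeq flow-cell, were annealed to 100 nM quencher-labelled ATP aptamer and imaged in selection buffer, then after 15 min with 500 uM ATP at 22 °C, for five cycles with NaOH stripping and re-annealing between them.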
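Also: ATP exposure 15 min at 22 °C before imaging.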

Sequence	switch fluorescence ratio
AGGGGTAGGG	1.01 ± 0.027
AGGGGTATCG	1 ± 0.029
AGGGGTATCT	0.9739 ± 0.007
AGGGGTGCGC	0.9894 ± 0.0055
AGGGGTGCGG	1.04 ± 0.08
AGGGGTGGAG	1.02 ± 0.006
AGGGGTGTTT	0.999 ± 0.039
AGGGGTTAGC	0.974 ± 0.05
AGGGTAAATT	1.03 ± 0.053
AGGGTAAGTC	0.972 ± 0.043
AGGGTACAGT	1.04 ± 0.055
AGGGTAGGGG	0.994 ± 0.03
AGGGTAGGTG	1.09 ± 0.012
AGGGTATGTT	0.9682 ± 0.004
AGGGTATTCA	1.01 ± 0.02
AGGGTCAGGG	1.01 ± 0.04
AGGGTCGGAA	1.02 ± 0.018
AGGGTCTTGC	0.998 ± 0.014
AGGGTGCCGT	0.988 ± 0.08
AGGGTGCTCC	1.23 ± 0.33
AGGGTGCTCG	1.02 ± 0.047
AGGGTGGGGG	1.03 ± 0.036
AGGGTGGGTA	0.9768 ± 0.0053
AGGGTGGTGT	0.976 ± 0.039
AGGGTGGTTT	0.997 ± 0.02

Sequence	switch fluorescence ratio
AGGGTGTGCC	1.01 ± 0.018
AGGGTTAACA	1.01 ± 0.016
AGGGTTAGCA	1.02 ± 0.021
AGGGTTATCG	1.02 ± 0.018
AGGGTTCTGG	0.971 ± 0.028
AGGGTTGCAT	0.9863 ± 0.0025
AGGGTTGGCA	0.998 ± 0.029
AGGGTTGGGT	1.01 ± 0.03
AGGGTTTGGG	1.01 ± 0.038
AGGTAAACGT	1.05 ± 0.083
AGGTAAATTA	0.9982 ± 0.0076
AGGTAACTGT	1.01 ± 0.051
AGGTAAGCTA	1.025 ± 0.005
AGGTAAGGGT	0.974 ± 0.035
AGGTAATAGC	1.05 ± 0.0078
AGGTACCGTT	1.033 ± 0.0017
AGGTACGTGG	0.996 ± 0.059
AGGTAGAGAG	0.992 ± 0.038
AGGTAGCACA	1.056 ± 0.0036
AGGTAGGCGT	0.97539 ± 0.00061
AGGTAGTTTA	1.02 ± 0.045
AGGTATGCGT	0.985 ± 0.041
AGGTATTGGA	0.985 ± 0.015
AGGTATTTG	0.986 ± 0.013
AGGTCATGTA	1.01 ± 0.026

Sequence	switch fluorescence ratio
AGGTCCGACG	0.967 ± 0.041
AGGTCGAATT	1 ± 0.051
AGGTCGGGAG	0.9895 ± 0.0072
AGGTCGTCGT	0.955 ± 0.017
AGGTCGTGGG	0.996 ± 0.016
AGGTCTATGC	0.975 ± 0.016
AGGTCTATTG	1.06 ± 0.09
AGGTCTGCGG	0.967 ± 0.025
AGGTCTTTCG	1.002 ± 0.003
AGGTGACGGT	0.9809 ± 0.0085
AGGTGAGGCA	1.05 ± 0.097
AGGTGCCGTG	1.02 ± 0.083
AGGTGCTGGG	1.03 ± 0.013
AGGTGGGGAT	0.994 ± 0.021
AGGTGGTGAC	0.979 ± 0.018
AGGTGGTGCT	0.991 ± 0.056
AGGTGGTGTG	0.984 ± 0.015
AGGTGTAACA	1.15 ± 0.2
AGGTGTGAGC	1.03 ± 0.012
AGGTTAGGGT	0.969 ± 0.015
AGGTTATATT	1.01 ± 0.024
AGGTTCAAAG	0.959 ± 0.037
AGGTTCATCT	1.011 ± 0.0057
AGGTTGAAGG	0.997 ± 0.016
AGGTTGAGAT	1.04 ± 0.041

Sequence	switch fluorescence ratio
AGGTTGAGGA	0.964 ± 0.033
AGGTTGCCGG	1.04 ± 0.046
AGGTTGGGGC	1.01 ± 0.052
AGGTTGTAGC	0.998 ± 0.02
AGGTTGTCGT	0.997 ± 0.035
AGGTTGTGAG	0.98 ± 0.034
AGGTTGTTCT	0.967 ± 0.035
AGGTTTATTT	1.02 ± 0.018
AGGTTTCCGT	1.02 ± 0.032
AGGTTTGACA	1.027 ± 0.0067
AGGTTTGCGT	1.01 ± 0.021
AGGTTTTCAG	0.983 ± 0.045
AGGTTTTCGT	1.028 ± 0.0039
AGGTTTTGGG	0.979 ± 0.022
AGGTTTTGTG	1.02 ± 0.044
AGGTTTTTGA	0.991 ± 0.04
AGTAAAGGGT	0.999 ± 0.012
AGTAAATTAT	1.03 ± 0.027
AGTAACCGGC	0.967 ± 0.12
AGTAACCTTG	1.02 ± 0.022
AGTAACGCTT	1.008 ± 0.01
AGTAACGGTA	1.04 ± 0.012
AGTAACGGTG	1.034 ± 0.0019
AGTAAGATAA	0.986 ± 0.058
AGTAAGCGAC	1.063 ± 0.0014

Sequence	switch fluorescence ratio
AGTAAGGGCG	0.992 ± 0.039
AGTAAGGGGT	0.982 ± 0.021
AGTAAGGTGT	1.13 ± 0.095
AGTAATAGGA	1.03 ± 0.076
AGTACAATGC	1.47 ± 0.18
AGTACCAATG	1.03 ± 0.039
AGTACGATTG	1 ± 0.023
AGTACGGATA	1.03 ± 0.074
AGTACGGTGC	1.02 ± 0.017
AGTACGGTGG	0.985 ± 0.064
AGTACGTTAT	1.14 ± 0.026
AGTACGTTGG	0.966 ± 0.034
AGTACTAACT	1.05 ± 0.048
AGTACTGACC	1.23 ± 0.037
AGTAGAATGG	1.001 ± 0.0004
AGTAGACGAC	1.03 ± 0.042
AGTAGAGAAT	1.04 ± 0.017
AGTAGAGGTT	1.008 ± 0.0064
AGTAGCTCTC	1.02 ± 0.013
AGTAGGGGTA	0.974 ± 0.039
AGTAGGGTTA	0.989 ± 0.029
AGTAGTAAAC	1.02 ± 0.016
AGTAGTTGGC	1.01 ± 0.12
AGTATCCAAA	0.999 ± 0.027
AGTATCTTCG	0.9923 ± 0.0027

Sequence	switch fluorescence ratio
AGTATGATTT	0.98 ± 0.027
AGTATGTCGA	1.01 ± 0.015
AGTATGTCGT	1.03 ± 0.024
AGTATGTGGG	0.996 ± 0.048
AGTATTCGCT	0.975 ± 0.017
AGTATTGCTC	1.01 ± 0.024
AGTATTTTG	0.96 ± 0.013
AGTCAAAGGA	1.012 ± 0.0051
AGTCAACTTG	1.01 ± 0.053
AGTCAGAAAT	1 ± 0.022
AGTCAGGCGA	1.01 ± 0.078
AGTCATAAAA	1.01 ± 0.045
AGTCCGTCGT	1.026 ± 0.0068
AGTCCTTTGT	1.02 ± 0.025
AGTCGCCCTG	0.985 ± 0.05
AGTCGCGCGC	0.989 ± 0.011
AGTCGGACGG	1.01 ± 0.034
AGTCGGATTC	1.09 ± 0.076
AGTCGGGAGA	1.01 ± 0.015
AGTCGTGTCT	0.967 ± 0.012
AGTCGTTGAG	1.02 ± 0.033
AGTCGTTTTT	0.98 ± 0.026
AGTCTAAGTG	0.956 ± 0.021
AGTCTGAGAC	1.013 ± 0.0089
AGTCTGGACT	0.988 ± 0.025

Sequence	switch fluorescence ratio
AGTCTGGGGC	0.942 ± 0.023
AGTCTGGTGC	1.04 ± 0.032
AGTGACAACA	1.007 ± 0.0021
AGTGAGGATC	0.993 ± 0.032
AGTGAGTAAC	0.9811 ± 0.0061
AGTGAGTGCT	0.9751 ± 0.0059
AGTGCAAGAT	1.08 ± 0.028
AGTGCATTGG	1 ± 0.024
AGTGCGTGGG	1.002 ± 0.0061
AGTGGACATC	0.99098 ± 0.00034
AGTGGACGAC	0.9912 ± 0.0079
AGTGGAGACG	1.03 ± 0.012
AGTGGAGCTG	1.02 ± 0.038
AGTGGATTCT	1.004 ± 0.0022
AGTGGATTGG	1.01 ± 0.045
AGTGGCCCCG	1 ± 0.011
AGTGGCCGCG	1.02 ± 0.016
AGTGGGGAGA	1.02 ± 0.035
AGTGGGGATG	1.01 ± 0.013
AGTGGGGGAG	1.002 ± 0.0087
AGTGGGGGTG	1.03 ± 0.043
AGTGGGGTCA	0.989 ± 0.021
AGTGGGTGTT	1.01 ± 0.045
AGTGGGTTTC	0.9697 ± 0.0026
AGTGGTAAAG	1.012 ± 0.0029

Sequence	switch fluorescence ratio
AGTGGTGGCT	1.04 ± 0.018
AGTGGTGTGG	0.993 ± 0.044
AGTGGTTCGG	0.993 ± 0.015
AGTGGTTTGT	0.949 ± 0.017
AGTGTAATTT	0.973 ± 0.02
AGTGTACCGG	0.997 ± 0.01
AGTGTATATG	1.1 ± 0.099
AGTGTCTATT	0.981 ± 0.0055
AGTGTGAAGG	1.003 ± 0.0099
AGTGTGAGTT	1.025 ± 0.01
AGTGTGGATT	1.03 ± 0.015
AGTGTGGCCA	1.02 ± 0.016
AGTGTGGTCT	1.02 ± 0.045
AGTGTGTTCT	1.02 ± 0.021
AGTGTGTTGC	1.023 ± 0.0095
AGTGTTACGT	0.989 ± 0.042
AGTGTTATTG	0.976 ± 0.028
AGTGTTGCCG	0.965 ± 0.069
AGTGTTGGGG	0.998 ± 0.017
AGTGTTGTGG	0.9904 ± 0.0021
AGTGTTTAAG	1.036 ± 0.009
AGTGTTTCTG	0.973 ± 0.049
AGTTAACGGT	1.18 ± 0.19
AGTTAACTTT	1.02 ± 0.028
AGTTAAGGGA	0.991 ± 0.062
